Measurements from patent US20230192841A1 (NANJING LEGEND BIOTECH, published 2023).

Molecular target: T1, human Claudin18.2 (human, UniProt P56856-2 1-261)
T1 construct: whole, on cells; expressed on Dubca, HEK293T, PANC1 cells by lentiviral transduction; endogenous on NUGC4 and KATOIII cells; also called huCLDN18.2; CLDN18.2
Assay: phage ELISA and cell binding of phage supernatant, HEK293T.huCLDN18.2.Luc cells
Procedure: Phage ELISA was performed to identify clones specific to the target antigens. Individual output phage clones were grown in 96-deep-well plates and rescued by M13KO7 helper phage overnight. To identify clones that bound to antigen proteins, 96-well ELISA microtiter plates were coated with recombinant human HEK293T.huCLDN18.1.Luc and HEK293T.huCLDN18.2.Luc cells respectively in coating buffer overnight at 4° C., and the plates were then blocked with blocking buffer. After blocking, approximately 50 µL per well of phage supernatant from overnight cell culture was added to the plates for 1.5-hour incubation at 4° C. The plates were washed four times, and the HRP-conjugated anti-M13 monoclonal antibody was added to the plates for 45-minute incubation at 4° C. The plates were again washed five times and substrate solution was added to the wells for color developing. Absorbance at 450 nm was measured for each well.
To further identify clones that bind HEK293T.huCLDN18.2.Luc cells, the HEK293T.CLDN18.2.Luc cells were blocked with blocking buffer at room temperature for 1 hour. After blocking, approximately 20 µL per well of phage supernatant from overnight cell culture was added to the cell solutions for 1-hour incubation at room temperature. […] The absorption was measured at 450 nm.

binding result: binds
B1: VHH182512 (VHH)
VHH: EVQLVESGGGSVQAGGSLTLSCEASRSTANMAWFRQGPGKEREGVAAAHSDGSTKYADSVKGRFTISKDNGKNTLYLRMNGLKPEEGVMYYCAARGSPWWNSVVALESYAYSYWGQGTQVTVSS
